Measurements taken from paper PMC12700808.

What was measured:
[1] = target: Nup98-type FG domain comprising 52 perfect 12-mer GLFG repeat units (prf.GLFG52x12); test: FG phase partitioning assay
[2] = target: Nup98-type FG domain comprising 52 perfect 12-mer GLFG repeat units (prf.GLFG52x12); test: FG phase partitioning assay; remark: listed apart in the source
[3] = target: Nup98-type FG domain comprising 52 perfect 12-mer GLFG repeat units (prf.GLFG52x12); test: FG phase partitioning assay; remark: listed apart in the source
[4] = target: Nup98-type FG domain comprising 52 perfect 12-mer GLFG repeat units (prf.GLFG52x12); test: partitioning into an FG phase (confocal laser scanning microscopy); prf.GLFG52x12 domain phase-separated into FG particles; fluorescent species added, scanned 1 h later; 50 mM Tris-HCl pH 7.5, 150 or 250 mM NaCl, 0.5 mM IP6; signal in:out, or rim and centre normalised to wild type
[5] = fluorescence intensity at rim of FG particles
[6] = fluorescence intensity in center of FG particles
[7] = signal in center of FG particles

Substance: conical CLPs (capsid-like particles) of wild-type CA (CA-P1A), filled with sinGFP4a E45A
- response [1, 5]: 29000
- response [1, 6]: 34000
- percent of parent ([2]; signal at rim of FG particles): 110%
- percent of parent [2, 7]: 110%

Substance: 20-nm T1 pentamer-only capsid spheres (CA P1A+G60A+G61P), EGFP-labelled A92E
- response [3, 5]: 11000
- response [3, 6]: 5300
- percent of parent ([3]; signal at rim of FG particles): 58%
- percent of parent [3, 7]: 28%

Substance: conical CLPs (capsid-like particles) of wild-type CA (CA-P1A), filled with sinGFP4a A88G
- response [3, 5]: 26000
- response [3, 6]: 30000
- percent of parent ([3]; signal at rim of FG particles): 90%
- percent of parent [3, 7]: 90%

Substance: CLPs of CA M96E, filled with sinGFP4a (complex)
- fold reduction of partitioning against wild type [4]: > 10 fold

Substance: conical CLPs (capsid-like particles) of wild-type CA (CA-P1A), filled with sinGFP4a H87G
- response [3, 5]: 30000
- response [3, 6]: 30000
- percent of parent [3, 7]: 90%

Substance: CLPs of CA I91E, filled with sinGFP4a (complex)
- fold reduction of partitioning against wild type [4]: > 10 fold

Substance: conical CLPs (capsid-like particles) of wild-type CA (CA-P1A), filled with sinGFP4a K182R
- response [1, 5]: 28000
- response [1, 6]: 34000
- percent of parent [2, 7]: 110%

Substance: conical CLPs (capsid-like particles) of wild-type CA (CA-P1A), filled with sinGFP4a I91G
- response [3, 5]: 30000
- response [3, 6]: 33000

Substance: conical CLPs (capsid-like particles) of wild-type CA (CA-P1A), filled with sinGFP4a N57A; A92E; G94D
- response [3, 5]: 4300
- response [3, 6]: 660
- percent of parent ([3]; signal at rim of FG particles): 16%
- percent of parent [3, 7]: 2.5%

Substance: EGFP
- partition coefficient (in:out) [4]: < 0.1

Substance: 20-nm T1 pentamer-only capsid spheres (CA P1A+G60A+G61P), EGFP-labelled N57A
- response [3, 5]: 8500
- response [3, 6]: 400
- percent of parent ([3]; signal at rim of FG particles): 45%
- percent of parent [3, 7]: 2.1%

Substance: conical CLPs (capsid-like particles) of wild-type CA (CA-P1A), EGFP-labelled (complex)
- partition coefficient (in:out) [4]: 1000

Substance: conical CLPs (capsid-like particles) of wild-type CA (CA-P1A), filled with sinGFP4a N57A; H87Q; A92E; G94D
- response [3, 5]: 370
- response [3, 6]: 440
- percent of parent ([3]; signal at rim of FG particles): 1.4%
- percent of parent [3, 7]: 1.7%

Substance: conical CLPs (capsid-like particles) of wild-type CA (CA-P1A), filled with sinGFP4a N57A; A92E
- response [3, 5]: 14000
- response [3, 6]: 1100
- percent of parent ([3]; signal at rim of FG particles): 52%
- percent of parent [3, 7]: 4.2%

Substance: 20-nm T1 pentamer-only capsid spheres (CA P1A+G60A+G61P), EGFP-labelled Q9E
- response [3, 5]: 15000
- response [3, 6]: 14000
- percent of parent ([3]; signal at rim of FG particles): 79%
- percent of parent [3, 7]: 74%

Substance: 20-nm T1 pentamer-only capsid spheres (CA P1A+G60A+G61P), EGFP-labelled H87Q
- response [3, 5]: 15000
- response [3, 6]: 13000
- percent of parent ([3]; signal at rim of FG particles): 79%
- percent of parent [3, 7]: 68%

Substance: 20-nm T1 pentamer-only capsid spheres (CA P1A+G60A+G61P), EGFP-labelled Q9E; A92E
- response [3, 5]: 5800
- response [3, 6]: 290
- percent of parent ([3]; signal at rim of FG particles): 31%
- percent of parent [3, 7]: 1.5%

Substance: conical CLPs (capsid-like particles) of wild-type CA (CA-P1A), filled with sinGFP4a L136M
- response [1, 5]: 28000
- response [1, 6]: 30000

Substance: conical CLPs (capsid-like particles) of wild-type CA (CA-P1A), filled with sinGFP4a R143A
- response [1, 5]: 28000
- response [1, 6]: 30000

Substance: CLPs of CA A92E, filled with sinGFP4a (complex)
- fold reduction of partitioning against wild type [4]: > 10 fold
- partitioning, percent of the wild-type level (% of the wild-type level) [4]: 5

Substance: conical CLPs (capsid-like particles) of wild-type CA (CA-P1A), filled with sinGFP4a A92G
- response [3, 5]: 26000
- response [3, 6]: 32000
- percent of parent ([3]; signal at rim of FG particles): 90%
- percent of parent [3, 7]: 90%

Substance: conical CLPs (capsid-like particles) of wild-type CA (CA-P1A), filled with sinGFP4a G116A
- response [1, 5]: 27000
- response [1, 6]: 32000

Substance: 20-nm T1 pentamer-only capsid spheres (CA P1A+G60A+G61P), EGFP-labelled H87Q; A92E; G94D
- response [3, 5]: 2300
- response [3, 6]: 190
- percent of parent ([3]; signal at rim of FG particles): 12%
- percent of parent [3, 7]: 1%

Substance: CLPs of CA G94D, filled with sinGFP4a (complex)
- partitioning, percent of the wild-type level (% of the wild-type level) [4]: 5

Substance: conical CLPs (capsid-like particles) of wild-type CA (CA-P1A), filled with sinGFP4a N74D
- response [1, 5]: 30000
- response [1, 6]: 33000
- percent of parent ([2]; signal at rim of FG particles): 110%
- percent of parent [2, 7]: 110%

Substance: CLPs of CA H87E, filled with sinGFP4a (complex)
- fold reduction of partitioning against wild type [4]: 15 fold

Substance: CLPs of CA A88E, filled with sinGFP4a (complex)
- fold reduction of partitioning against wild type [4]: > 10 fold

Substance: conical CLPs (capsid-like particles) of wild-type CA (CA-P1A), filled with sinGFP4a G89V
- response [1, 5]: 29000
- response [1, 6]: 30000
- percent of parent [2, 7]: 110%

Substance: conical CLPs (capsid-like particles) of wild-type CA (CA-P1A), filled with sinGFP4a V86G
- response [3, 5]: 27000
- response [3, 6]: 31000
- percent of parent ([3]; signal at rim of FG particles): 90%
- percent of parent [3, 7]: 90%

Substance: conical CLPs (capsid-like particles) of wild-type CA (CA-P1A), filled with sinGFP4a N57A; G94D
- response [3, 5]: 17000
- response [3, 6]: 1200
- percent of parent ([3]; signal at rim of FG particles): 63%
- percent of parent [3, 7]: 4.6%

Substance: CLPs of CA H87Q, filled with sinGFP4a (complex)
- reduction in partitioning against wild type [4]: 50%

Substance: mCherry
- partition coefficient (in:out) [4]: < 0.1

Substance: 20-nm T1 pentamer-only capsid spheres (CA P1A+G60A+G61P), EGFP-labelled V86E; A88E; I91E; A92E
- response [3, 5]: 74
- percent of parent ([3]; signal at rim of FG particles): 0.4%
- percent of parent [3, 7]: 0.4%

Substance: conical CLPs (capsid-like particles) of wild-type CA (CA-P1A), filled with sinGFP4a M96G
- response [3, 5]: 28000
- response [3, 6]: 30000
- percent of parent [3, 7]: 90%

Substance: conical CLPs (capsid-like particles) of wild-type CA (CA-P1A), filled with sinGFP4a A77V
- response [1, 5]: 27000
- response [1, 6]: 29000
- percent of parent [2, 7]: 94%

Substance: 20-nm T1 pentamer-only capsid spheres (CA P1A+G60A+G61P), EGFP-labelled G94D
- response [3, 5]: 15000
- response [3, 6]: 9600
- percent of parent ([3]; signal at rim of FG particles): 79%

Substance: CLPs of CA R132K, filled with sinGFP4a (complex)
- reduction in partitioning against wild type [4]: 50%

Substance: CLPs of CA V86E, filled with sinGFP4a (complex)
- fold reduction of partitioning against wild type [4]: > 10 fold
